B1: anti-PD-1 antibody 1 light chain A25C (antibody, human IgG4 S228P, kappa, V domains shown)
VH: QVQLVQSGVEVKKPGASVKVSCKASGYTFTNYYMYWVRQAPGQGLEWMGGINPSNGGTNFNEKFKNRVTLTTDSSTTTAYMELKSLQFDDTAVYYCARRDYRFDMGFDYWGQGTTVTVSS
VL: EIVLTQSPATLSLSPGERATLSCRCSKGVSTSGYSYLHWYQQKPGQAPRLLIYLASYLESGVPARFSGSGSGTDFTLTISSLEPEDFAVYYCQHSRDLPLTFGGGTKVEIKR
B2: anti-PD-1 antibody 1 light chain L54C (antibody, human IgG4 S228P, kappa, V domains shown)
VH: QVQLVQSGVEVKKPGASVKVSCKASGYTFTNYYMYWVRQAPGQGLEWMGGINPSNGGTNFNEKFKNRVTLTTDSSTTTAYMELKSLQFDDTAVYYCARRDYRFDMGFDYWGQGTTVTVSS
VL: EIVLTQSPATLSLSPGERATLSCRASKGVSTSGYSYLHWYQQKPGQAPRLLIYCASYLESGVPARFSGSGSGTDFTLTISSLEPEDFAVYYCQHSRDLPLTFGGGTKVEIKR
B3: anti-PD-1 antibody 1 light chain A55C (antibody, human IgG4 S228P, kappa, V domains shown)
VH: QVQLVQSGVEVKKPGASVKVSCKASGYTFTNYYMYWVRQAPGQGLEWMGGINPSNGGTNFNEKFKNRVTLTTDSSTTTAYMELKSLQFDDTAVYYCARRDYRFDMGFDYWGQGTTVTVSS
VL: EIVLTQSPATLSLSPGERATLSCRASKGVSTSGYSYLHWYQQKPGQAPRLLIYLCSYLESGVPARFSGSGSGTDFTLTISSLEPEDFAVYYCQHSRDLPLTFGGGTKVEIKR
B4: anti-PD-1 antibody 1 light chain L37C (antibody, human IgG4 S228P, kappa, V domains shown)
VH: QVQLVQSGVEVKKPGASVKVSCKASGYTFTNYYMYWVRQAPGQGLEWMGGINPSNGGTNFNEKFKNRVTLTTDSSTTTAYMELKSLQFDDTAVYYCARRDYRFDMGFDYWGQGTTVTVSS
VL: EIVLTQSPATLSLSPGERATLSCRASKGVSTSGYSYCHWYQQKPGQAPRLLIYLASYLESGVPARFSGSGSGTDFTLTISSLEPEDFAVYYCQHSRDLPLTFGGGTKVEIKR
B5: anti-PD-1 antibody 1 light chain T31C (antibody, human IgG4 S228P, kappa, V domains shown)
VH: QVQLVQSGVEVKKPGASVKVSCKASGYTFTNYYMYWVRQAPGQGLEWMGGINPSNGGTNFNEKFKNRVTLTTDSSTTTAYMELKSLQFDDTAVYYCARRDYRFDMGFDYWGQGTTVTVSS
VL: EIVLTQSPATLSLSPGERATLSCRASKGVSCSGYSYLHWYQQKPGQAPRLLIYLASYLESGVPARFSGSGSGTDFTLTISSLEPEDFAVYYCQHSRDLPLTFGGGTKVEIKR
B6: anti-PD-1 antibody 2 heavy chain G55C (antibody, human IgG4 S228P, kappa, V domains shown)
VH: QVQLVESGGGVVQPGRSLRLDCKASGITFSNSGMHWVRQAPGKGLEWVAVIWYDCSKRYYADSVKGRFTISRDNSKNTLFLQMNSLRAEDTAVYYCATNDDYWGQGTLVTVSS
VL: EIVLTQSPATLSLSPGERATLSCRASQSVSSYLAWYQQKPGQAPRLLIYDASNRATGIPARFSGSGSGTDFTLTISSLEPEDFAVYYCQQSSNWPRTFGQGTKVEIKR
B7: anti-PD-1 antibody 2 heavy chain G66C (antibody, human IgG4 S228P, kappa, V domains shown)
VH: QVQLVESGGGVVQPGRSLRLDCKASGITFSNSGMHWVRQAPGKGLEWVAVIWYDGSKRYYADSVKCRFTISRDNSKNTLFLQMNSLRAEDTAVYYCATNDDYWGQGTLVTVSS
VL: EIVLTQSPATLSLSPGERATLSCRASQSVSSYLAWYQQKPGQAPRLLIYDASNRATGIPARFSGSGSGTDFTLTISSLEPEDFAVYYCQQSSNWPRTFGQGTKVEIKR
B8: anti-PD-1 antibody 2 heavy chain S30C (antibody, human IgG4 S228P, kappa, V domains shown)
VH: QVQLVESGGGVVQPGRSLRLDCKASGITFCNSGMHWVRQAPGKGLEWVAVIWYDGSKRYYADSVKGRFTISRDNSKNTLFLQMNSLRAEDTAVYYCATNDDYWGQGTLVTVSS
VL: EIVLTQSPATLSLSPGERATLSCRASQSVSSYLAWYQQKPGQAPRLLIYDASNRATGIPARFSGSGSGTDFTLTISSLEPEDFAVYYCQQSSNWPRTFGQGTKVEIKR
B9: anti-PD-1 antibody 2 heavy chain S32C (antibody, human IgG4 S228P, kappa, V domains shown)
VH: QVQLVESGGGVVQPGRSLRLDCKASGITFSNCGMHWVRQAPGKGLEWVAVIWYDGSKRYYADSVKGRFTISRDNSKNTLFLQMNSLRAEDTAVYYCATNDDYWGQGTLVTVSS
VL: EIVLTQSPATLSLSPGERATLSCRASQSVSSYLAWYQQKPGQAPRLLIYDASNRATGIPARFSGSGSGTDFTLTISSLEPEDFAVYYCQQSSNWPRTFGQGTKVEIKR
B10: anti-PD-1 antibody 2 heavy chain S63C (antibody, human IgG4 S228P, kappa, V domains shown)
VH: QVQLVESGGGVVQPGRSLRLDCKASGITFSNSGMHWVRQAPGKGLEWVAVIWYDGSKRYYADCVKGRFTISRDNSKNTLFLQMNSLRAEDTAVYYCATNDDYWGQGTLVTVSS
VL: EIVLTQSPATLSLSPGERATLSCRASQSVSSYLAWYQQKPGQAPRLLIYDASNRATGIPARFSGSGSGTDFTLTISSLEPEDFAVYYCQQSSNWPRTFGQGTKVEIKR
B11: anti-PD-1 antibody 2 heavy chain S56C (antibody, human IgG4 S228P, kappa, V domains shown)
VH: QVQLVESGGGVVQPGRSLRLDCKASGITFSNSGMHWVRQAPGKGLEWVAVIWYDGCKRYYADSVKGRFTISRDNSKNTLFLQMNSLRAEDTAVYYCATNDDYWGQGTLVTVSS
VL: EIVLTQSPATLSLSPGERATLSCRASQSVSSYLAWYQQKPGQAPRLLIYDASNRATGIPARFSGSGSGTDFTLTISSLEPEDFAVYYCQQSSNWPRTFGQGTKVEIKR
B12: anti-CTLA-4 antibody light chain A25C (antibody, human IgG1, kappa, V domains shown)
VH: QVQLVESGGGVVQPGRSLRLSCAASGFTFSSYTMHWVRQAPGKGLEWVTFISYDGNNKYYADSVKGRFTISRDNSKNTLYLQMNSLRAEDTAIYYCARTGWLGPFDYWGQGTLVTVSS
VL: not shown
B13: anti-CTLA-4 antibody light chain S94C (antibody, human IgG1, kappa, V domains shown)
VH: QVQLVESGGGVVQPGRSLRLSCAASGFTFSSYTMHWVRQAPGKGLEWVTFISYDGNNKYYADSVKGRFTISRDNSKNTLYLQMNSLRAEDTAIYYCARTGWLGPFDYWGQGTLVTVSS
VL: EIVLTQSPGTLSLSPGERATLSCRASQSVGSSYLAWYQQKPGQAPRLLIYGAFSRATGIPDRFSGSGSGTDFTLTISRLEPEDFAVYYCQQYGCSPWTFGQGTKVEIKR
B14: anti-CTLA-4 antibody light chain G51C (antibody, human IgG1, kappa, V domains shown)
VH: QVQLVESGGGVVQPGRSLRLSCAASGFTFSSYTMHWVRQAPGKGLEWVTFISYDGNNKYYADSVKGRFTISRDNSKNTLYLQMNSLRAEDTAIYYCARTGWLGPFDYWGQGTLVTVSS
VL: not shown
B15: anti-CTLA-4 antibody light chain G30C (antibody, human IgG1, kappa, V domains shown)
VH: QVQLVESGGGVVQPGRSLRLSCAASGFTFSSYTMHWVRQAPGKGLEWVTFISYDGNNKYYADSVKGRFTISRDNSKNTLYLQMNSLRAEDTAIYYCARTGWLGPFDYWGQGTLVTVSS
VL: not shown
B16: anti-CTLA-4 antibody light chain G58C (antibody, human IgG1, kappa, V domains shown)
VH: QVQLVESGGGVVQPGRSLRLSCAASGFTFSSYTMHWVRQAPGKGLEWVTFISYDGNNKYYADSVKGRFTISRDNSKNTLYLQMNSLRAEDTAIYYCARTGWLGPFDYWGQGTLVTVSS
VL: not shown
B17: anti-CTLA-4 antibody light chain S32C (antibody, human IgG1, kappa, V domains shown)
VH: QVQLVESGGGVVQPGRSLRLSCAASGFTFSSYTMHWVRQAPGKGLEWVTFISYDGNNKYYADSVKGRFTISRDNSKNTLYLQMNSLRAEDTAIYYCARTGWLGPFDYWGQGTLVTVSS
VL: not shown
B18: anti-CTLA-4 antibody light chain T57C (antibody, human IgG1, kappa, V domains shown)
VH: QVQLVESGGGVVQPGRSLRLSCAASGFTFSSYTMHWVRQAPGKGLEWVTFISYDGNNKYYADSVKGRFTISRDNSKNTLYLQMNSLRAEDTAIYYCARTGWLGPFDYWGQGTLVTVSS
VL: not shown
B19: anti-CTLA-4 antibody light chain S54C (antibody, human IgG1, kappa, V domains shown)
VH: QVQLVESGGGVVQPGRSLRLSCAASGFTFSSYTMHWVRQAPGKGLEWVTFISYDGNNKYYADSVKGRFTISRDNSKNTLYLQMNSLRAEDTAIYYCARTGWLGPFDYWGQGTLVTVSS
VL: not shown
B20: anti-CTLA-4 antibody light chain S28C (antibody, human IgG1, kappa, V domains shown)
VH: QVQLVESGGGVVQPGRSLRLSCAASGFTFSSYTMHWVRQAPGKGLEWVTFISYDGNNKYYADSVKGRFTISRDNSKNTLYLQMNSLRAEDTAIYYCARTGWLGPFDYWGQGTLVTVSS
VL: not shown
B21: anti-CTLA-4 antibody light chain S95C (antibody, human IgG1, kappa, V domains shown)
VH: QVQLVESGGGVVQPGRSLRLSCAASGFTFSSYTMHWVRQAPGKGLEWVTFISYDGNNKYYADSVKGRFTISRDNSKNTLYLQMNSLRAEDTAIYYCARTGWLGPFDYWGQGTLVTVSS
VL: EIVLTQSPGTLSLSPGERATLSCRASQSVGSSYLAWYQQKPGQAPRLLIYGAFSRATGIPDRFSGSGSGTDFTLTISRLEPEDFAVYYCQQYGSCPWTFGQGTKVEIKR
B22: anti-CTLA-4 antibody light chain G93C (antibody, human IgG1, kappa, V domains shown)
VH: QVQLVESGGGVVQPGRSLRLSCAASGFTFSSYTMHWVRQAPGKGLEWVTFISYDGNNKYYADSVKGRFTISRDNSKNTLYLQMNSLRAEDTAIYYCARTGWLGPFDYWGQGTLVTVSS
VL: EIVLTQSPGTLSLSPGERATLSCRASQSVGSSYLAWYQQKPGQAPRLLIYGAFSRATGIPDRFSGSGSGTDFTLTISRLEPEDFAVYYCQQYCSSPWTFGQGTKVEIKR
B23: anti-CTLA-4 antibody light chain S31C (antibody, human IgG1, kappa, V domains shown)
VH: QVQLVESGGGVVQPGRSLRLSCAASGFTFSSYTMHWVRQAPGKGLEWVTFISYDGNNKYYADSVKGRFTISRDNSKNTLYLQMNSLRAEDTAIYYCARTGWLGPFDYWGQGTLVTVSS
VL: not shown
B24: anti-CTLA-4 antibody light chain S26C (antibody, human IgG1, kappa, V domains shown)
VH: QVQLVESGGGVVQPGRSLRLSCAASGFTFSSYTMHWVRQAPGKGLEWVTFISYDGNNKYYADSVKGRFTISRDNSKNTLYLQMNSLRAEDTAIYYCARTGWLGPFDYWGQGTLVTVSS
VL: not shown
notes: also called CTLA-4-Ser26Cys

Each binder was assayed against T1, PD-1 (UniProt Q15116 25-167, limits assumed) (assay: ELISA, OD mutant/OD WT; B=70-90%).
T1 sequence (Q15116 25-167 limits assumed): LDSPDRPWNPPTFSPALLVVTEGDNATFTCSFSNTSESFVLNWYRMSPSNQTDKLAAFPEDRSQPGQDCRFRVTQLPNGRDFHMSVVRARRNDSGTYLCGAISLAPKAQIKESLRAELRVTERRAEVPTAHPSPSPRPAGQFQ
In the case of B1, the “binding activity (OD after mutation/OD wild type)” value (“binding activity” below) is reported as 70 to 90%.
With B2 the “binding activity” value was 70 to 90%.
With B3 the “binding activity” value was 70 to 90%.
In the case of B4, the “binding activity” value is reported as 70 to 90%.
With B5 the “binding activity” value was 70 to 90%.

These binders were tested against T1, PD-1 (assay: ELISA, OD mutant/OD WT; A=90-110%).
B6 was tested, and the “binding activity” value was 90 to 110%.
With B7 the “binding activity” value was 90 to 110%.
B8 was tested, and the “binding activity” value was 90 to 110%.
For B9, the “binding activity” value was 90 to 110%.
In the case of B10, the “binding activity” value is reported as 90 to 110%.
For B11, the “binding activity” value was 90 to 110%.

What follows are binders tested against CTLA-4 (UniProt P16410 36-162, limits assumed) (assay: ELISA, OD mutant/OD WT; A=90-110%).
Chain of CTLA-4 (P16410 36-162 limits assumed): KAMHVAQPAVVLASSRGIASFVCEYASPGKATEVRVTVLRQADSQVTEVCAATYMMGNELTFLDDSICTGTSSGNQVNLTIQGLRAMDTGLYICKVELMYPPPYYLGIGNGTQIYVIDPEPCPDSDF
B12 was tested, and the “binding activity” value was 90 to 110%.
For B13, the “binding activity” value was 90 to 110%.
In the case of B14, the “binding activity” value is reported as 90 to 110%.
B15 was tested, and the “binding activity” value was 90 to 110%.
B16 was tested, and the “binding activity” value was 90 to 110%.
B17 was tested, and the “binding activity” value was 90 to 110%.
With B18 the “binding activity” value was 90 to 110%.
B19 was tested, and the “binding activity” value was 90 to 110%.
For B20, the “binding activity” value was 90 to 110%.
In the case of B21, the “binding activity” value is reported as 90 to 110%.
In the case of B22, the “binding activity” value is reported as 90 to 110%.
With B23 the “binding activity” value was 90 to 110%.
With B24 the “binding activity” value was 90 to 110%.

— US20230158141A1 (YAFEI SHANGHAI BIOLOG MEDICINE SCIENCE AND TECHNOLOGY, published 2023)
